Test [1] has as its target FLAGemGFP-tagged PAIP2 PAM2 (PAM2 motif of PABP-interacting protein 2).
Test [2] addresses MS2V5-eIF4G 84-295 (eIF4G deletion mutant that only contains the interaction site for PABPC1) (UniProt Q04637).
The target in test [3] is FLAGemGFP-tagged eRF3a PAM2 (overlapping N- and C-terminal PAM2 motifs of eukaryotic release factor 3a).
Test [4] addresses FLAGemGFP-tagged eRF3a -C PAM2 (C-terminal PAM2 motif of eRF3a).
Test [5] addresses FLAGemGFP-tagged eRF3a -N PAM2 (N-terminal PAM2 motif of eRF3a).
Test [6] deals with FLAGemGFP-tagged PAIP2 PAM2 (PAM2 motif of PABP-interacting protein 2). This is another data set of the same source.

UniProt Q04637, sequence (Q04637 84-295, stated change not applied): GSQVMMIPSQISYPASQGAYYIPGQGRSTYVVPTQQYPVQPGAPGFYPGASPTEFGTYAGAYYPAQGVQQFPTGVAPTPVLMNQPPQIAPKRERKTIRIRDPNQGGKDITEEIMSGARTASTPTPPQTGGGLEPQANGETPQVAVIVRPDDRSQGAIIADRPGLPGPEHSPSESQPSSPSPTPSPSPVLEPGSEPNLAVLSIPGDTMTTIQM

For “cytoplasmic poly(A)-binding protein (PABPC1) (from UniProt P11940 1-636) (natural protein)”, the reporter mRNA level (TPI-4MS2 reporter with the SMG5 3' UTR, Northern blot, HeLa) upon tethering MS2V5-PAIP2 PAM2, relative to MS2V5-SYNZIP 1 (Fig. 2c) in test [1] was 4 fold. Further, the reporter mRNA level (TPI-4MS2 reporter with the SMG5 3' UTR, Northern blot, HeLa) upon tethering MS2V5-eIF4G 84-295, relative to MS2V5-GST in test [2] stood at 5 fold. Moreover, the reporter mRNA level (FLAG-TPI-4MS2-SMG5, Northern blot, HeLa) upon tethering the MS2V5-tagged overlapping eRF3a PAM2 motif, relative to MS2V5-GST (Fig. 3b) in test [3] turned out to be 5 fold. Further, the reporter mRNA level (FLAG-TPI-4MS2-SMG5, Northern blot, HeLa) upon tethering the MS2V5-tagged C-terminal eRF3a PAM2 motif (Fig. 3b) in test [4] turned out to be 5 fold. The reporter mRNA level (FLAG-TPI-4MS2-SMG5, Northern blot, HeLa) upon tethering the MS2V5-tagged N-terminal eRF3a PAM2 motif (Fig. 3b) in test [5] stood at 5 fold. For the same substance, in test [6], the reporter mRNA level (beta-globin 4MS2/4PP7 double tethering reporter, Northern blot, HeLa) upon tethering MS2V5-PAIP2 PAM2 upstream of PP7-tethered BTZ, relative to GST upstream of BTZ (Fig. 5d) worked out at 8 fold and the reporter mRNA level (beta-globin 4MS2/4PP7 double tethering reporter, Northern blot, HeLa) upon tethering MS2V5-PAIP2 PAM2 upstream of PP7-tethered RNPS1, relative to GST upstream of RNPS1 (Fig. 5c) amounted to 6 fold.

The values above are taken from article PMC5118804.
